# Assay results published in the DeepSol protein solubility set.
# Assay: soluble on expression in E. coli; label from the status in PepcDB or PDB records
row,Sequence,soluble on expression in E. coli
1,MGSDKIHHHHHHMAFTHTVGQHRHVFADLRTLLAKASPARSGDYLAGIAAASEEERMAARMALAAVPLTQFLSEALVPYEDDEVTRLIVDSHDAVAFAEIASLTVGDFRNWLLLHETDSTTLATVARGITPEMAAAVSKLMRNQDLIAVARKCHVVTRFRSTVGLPGRLSVRLQPNHPTDDPKGIAASIIDGLMYGCGDATIGVNPVSDSLGAIVSLLRMIDDLRCRYDIPTQSCVLTHVTHTLRAMEQGAPVDLVFQSVAGSERANAAFGISLSLLAEAHDAAQALARGTVGDNVMYFETGQGSALSANAHHGVDQQTMEARAYAVARRFSPLLVNTVVGFIGPEYLYDGKQIIRAGLEDHFCGKLLGVPMGCDVCYTNHAEADQDDMDTLLTLFGVAGINFIMGVPGADDIMLNYQSTSFHDALYLREVLGLRPAPEFEAWLQRMGIADGSGRLLEPAERQPLLELAHTL,not soluble
2,MVVLNTPGKYQYDLRNHLLVNLFPIALDAEITTSNVNKHQLHRSNIPAALSGNSGITDYVPFSAERNAAMVIWRTAIDSRPAVCNDEEGTPGTL,not soluble
3,MTWFIDRRLNGKNKSMVNRQRFLRRYKAQIKQSISEAINKRSVTDVDSGESVSIPTEDISEPMFHQGRGGLRHRVHPGNDHFVQNDRIERPQGGGGGSGSGQGQASQDGEGQDEFVFQISKDEYLDLLFEDLALPNLKQNQQRQLTEYKTHRAGYTANGVPANISVVRSLQNSLARRTAMTAGKRRELHALEENLAIISNSEPAQLLEEERLRKEIAELRAKIERVPFIDTFDLRYKNYEKRPDPSSQAVMFCLMDVSGSMDQSTKDMAKRFYILLYLFLSRTYKNVEVVYIRHHTQAKEVDEHEFFYSQETGGTIVSSALKLMDEVVKERYNPAQWNIYAAQASDGDNWADDSPLCHEILAKKLLPVVRYYSYIEITRRAHQTLWREYEHLQSTFDNFAMQHIRDQDDIYPVFRELFHKQNATAKGLEHHHHHH,not soluble
4,MWAQKTLQLKARSRGFHLITDEIEQQLPQIHELSVGLLHLFIQHTSASLTLNENADPTVRMDMEAHFNKFVQERAPYYQHTYEGDDDMPAHIKASLLGSSVTIPIQNGRLALGTWQGIYLGEHRDFGGSRRIIATINGELEHHHHHH,soluble
5,SADAFSLQRVLETFRSSLSENKEVYIKYYIAGWQELVSFMNSLGNVFSFISKDVVSKIQILENFLSGENGSNYVTIQSMVKYELENDLVDLTKRGSHPESGCRTLLRLHRALRWLELFLERLRTSTEDSKTSVMCSDAYNESLANHHPWLIRKAVGVAFCALPGRETFFDVMNAGDHTQVVALLGESLPLIAEVYQITEDLYAKNNLLELP,soluble
6,MATIRTKFRSSSAEGREGALYYQVIHNRVVRQISTGYKLFASEWDQRSEAVIPCQHPAGMERDNYLLSVGERIRRDKIRLEKAIRTLSQSGPFTADDIVIRFHDSGQEPSFNDYIRQQIVRLKRLGKIRTSETYTAALKSFSSFMKGSDILFGELSSDLLMEYEAYLKNRGNSPNTISFYMRILKAVYNRAVENGLTGQRNLFKSVYTGVEKTLKRAIHLNDIRRIKRLDLSLKPHLDFARDMFLFCFYTRGMSFVDMAYLKKGDIANGILTYRRKKTGQQLFIRWEKCMQEIIKLFCLSVQDFKVVH,not soluble
7,MGSDKIHHHHHHMSDGRLTALFPAFPHPASNQPVFAEASPHDDELMTQAVPQVSCQQALAIAQQEYGLSGQMSLLQGERDVNFCLTVTPDERYMLKVINAAEPADVSNFQTALLLHLARQAPELPVPRIRSTKAGQSETGVEIDGVLLRVRLVSYLAGMPQYLASPSTALMPQLGGTLAQLDNALHSFTHPAANRALLWDISRAEQVRPYLDFVSEPQQYQHLQRIFDRYDSNVAPLLTTLRRQVIHNDLNPHNVLVDGSSPTRVTGIIDFGDAVFAPLICEVATALAYQIGDGTDLLEHVVPFVAAYHQRIPLAPEEIALLPDLIATRMALTLTIAQWRASRYPDNREYLLRNVPRCWHSLQRIATYSHAQFLTRLQQVCPENAR,not soluble
8,MAHHHHHHMWHTTVMVPTQHWGAVGYFPAIVTRPSQLNFSGSYDPVAWSGPPSYPGQFAAGNRRQLGQQEQYRQPYSNYHNRPQPHRQMHAQPPYMAHRMTVNAVTYGFGDPTLGVYRTSADGWKYRGAYGGGRRPSPPFQAMVTRPLVSSNGRRRRGTHARANMAGGWGDLDTYDLYAFEAGENLDVDNMSYEELLELTERLGMVERGVQPARLNELRVVITPTHVKQQLESDRMVAGRNGLVKGGANIDQEEKEANEKMCEEDPIKCCICLDGVLVGQTATRMPCCRNFLHASCAAPWFV,not soluble
9,KRFTADVEQQAEKILSQMTLDEKLSYIGGINWMYTRPLERFGIPRLKMSDGPQGLGTHGPSTAYPCALMLAATWNEQLATEYGSALGKDCRARGVHVLLGPAVNIYRAPMCGRNFEYMGEDPYLTSRMATGYIKGVQGQGVMATIKHFIANNSDYDRDHISSDIDERTLNEIYFPSFRAAVQEAEVGAVMSSYNLLNGIYTTEHPWLLKDVLRQQWGFKGILMSDWGSTHHCIPAVKGGLDLEMPAGSKMQPEELKYYLRTGDITIETIDEKVRHILQTLLAFGFRETQQPDTHIPLKNPQCAQTA,not soluble
10,MAGGLFKLMKDKSVDHSHLHKDHSIHHPTPPRSFFSSSSLAVHPNVETAQSSSEEDLRMPNIKVFSGSSHPDLSTRICERLQLEVSKASLKKFSNKETNVEIGESVRGEDVYIIQSAAGEINDNLMELLIMINACKIASSCRVAAVIPAFPYARQDKKDKSRAPISAKLVANMLSVAGADHIITMDLHASQIQGFFDIPVDNLYAEPAILKYIKESIPNWQTSVIVSPDAGGAKRVTSIADRLNVDFALIHKESKRANEVEKMTLVGSVEGKVAILVDDMADTCGTICMAADKLVEAGADKVYAFCVHGIFSGPALTRLNASKFEAVVVTNTIPQDENMKKCSKIQCIDISMILAEAIRRTHNGESVSYLFSHVPIC,not soluble
11,MSLARVGVVCHVHPDADTIGAGLALALVLDGCGKRVEVSFAAPATLPESLRSLPGCHLLVRPEVMRRDVDLVVTVDIPSVDRLGALGDLTDSGRELLVIDHHASNDLFGTANFIDPSADSTTTMVAEILDAWGKPIDPRVAHCIYAGLATDTGSFRWASVRGYRLAARLVEIGVDNATVSRTLMDSHPFTWLPLLSRVLGSAQLVSEAVGGRGLVYVVVDNREWVAARSEEVESIVDIVRTTQQAEVAAVFKEVEPHRWSVSMRAKTVNLAAVASGFGGGGHRLAAGYTTTGSIDDAVASLRAALGEGHHHHHH,not soluble
12,MEVARGLEGVLFTESRMCYIDGQQGKLYYYGIPIQELAEKSSFEETTFLLLHGRLPRRQELEEFSAALARRRALPAHLLESFKRYPVSAHPMSFLRTAVSEFGMLDPTEGDISREALYEKGLDLIAKFATIVAANKRLKEGKEPIPPREDLSHAANFLYMANGVEPSPEQARLMDAALILHAEHGFNASTFTAIAAFSTETDLYSAITAAVASLKGPRHGGANEAVMRMIQEIGTPERAREWVREKLAKKERIMGMGHRVYKAFDPRAGVLEKLARLVAEKHGHSKEYQILKIVEEEAGKVLNPRGIYPNVDFYSGVVYSDLGFSLEFFTPIFAVARISGWVGHILEYQELDNRLLRPGAKYVGELDVPYVPLEARE,soluble
13,SLLAMPSAISVAVLPDSPHAREMATKAHNSGHEVLIHLPMAPLSKQPLEKNTLRPEMSSDEIERIIRSAVNNVPYAVGINNHMGSKMTSNLFGMQKVMQALERYNLYFLDSVTIGNTQAMRAAQGTGVKVIKRKVFLDDSQNEADIRVQFNRAIDLARRNGSTIAIGHPHPSTVRVLQQMVYNLPPDITLVKASSLLNEPQVDTSTPPKNAVPDAPRNPFRGVKLCKPKKPIEPVYANRFFEVLSESISQSTLIVYFQHQWQGWGKQPEAAKFNASAN,soluble
14,MEWIERLNKAMSYIEEHITEEIDFEQTAKIACCSAYHFQRMFTYMAGIPLSEYIRRRRMTLAAVELQSSDEKVIDIALKYGYASPTAFNRAFQSVQGITPSAAKKKGTPVKSYPPLSFAITIKGVEGMNYRIEEKEAFRIIGIAQSMSKNLEENFAVVPQMWGKAAADGTIQKLASMIEGQPAGLLGVSICNNEEDWRYFIAVSGTRPAEAPFEEYRVPASTWAVFPGTGTNLSVQDLERRIVTEWLPTSGYEYGSAPDIEVYISPNPENAKYEVWIPVVKKQ,not soluble
